According to IntAct's records for PubMed 18378898:

B1: Growth/differentiation factor 11 (Mus musculus), Q9Z1W4 (parent)
chain: MVLAAPLLLGFLLLALELRPRGEAAEGPAAAAAAAAAAAGVGGERSSRPAPSAPPEPDGCPVCVWRQHSRELRLESIKSQILSKLRLKEAPNISREVVKQLLPKAPPLQQILDLHDFQGDALQPEDFLEEDEYHATTETVISMAQETDPAVQTDGSPLCCHFHFSPKVMFTKVLKAQLWVYLRPVPRPATVYLQILRLKPLTGEGTAGGGGGGRRHIRIRSLKIELHSRSGHWQSIDFKQVLHSWFRQPQSNWGIEINAFDPSGTDLAVTSLGPGAEGLHPFMELRVLENTKRSRRNLGLDCDEHSSESRCCRYPLTVDFEAFGWDWIIAPKRYKANYCSGQCEYMFMQKYPHTHLVQQANPRGSAGPCCTPTKMSPINMLYFNDKQQIIYGKIPGMVVDRCGCS
B2: Growth/differentiation factor 11 (Mus musculus), Q9Z1W4 (parent)
chain: B1 chain
partner: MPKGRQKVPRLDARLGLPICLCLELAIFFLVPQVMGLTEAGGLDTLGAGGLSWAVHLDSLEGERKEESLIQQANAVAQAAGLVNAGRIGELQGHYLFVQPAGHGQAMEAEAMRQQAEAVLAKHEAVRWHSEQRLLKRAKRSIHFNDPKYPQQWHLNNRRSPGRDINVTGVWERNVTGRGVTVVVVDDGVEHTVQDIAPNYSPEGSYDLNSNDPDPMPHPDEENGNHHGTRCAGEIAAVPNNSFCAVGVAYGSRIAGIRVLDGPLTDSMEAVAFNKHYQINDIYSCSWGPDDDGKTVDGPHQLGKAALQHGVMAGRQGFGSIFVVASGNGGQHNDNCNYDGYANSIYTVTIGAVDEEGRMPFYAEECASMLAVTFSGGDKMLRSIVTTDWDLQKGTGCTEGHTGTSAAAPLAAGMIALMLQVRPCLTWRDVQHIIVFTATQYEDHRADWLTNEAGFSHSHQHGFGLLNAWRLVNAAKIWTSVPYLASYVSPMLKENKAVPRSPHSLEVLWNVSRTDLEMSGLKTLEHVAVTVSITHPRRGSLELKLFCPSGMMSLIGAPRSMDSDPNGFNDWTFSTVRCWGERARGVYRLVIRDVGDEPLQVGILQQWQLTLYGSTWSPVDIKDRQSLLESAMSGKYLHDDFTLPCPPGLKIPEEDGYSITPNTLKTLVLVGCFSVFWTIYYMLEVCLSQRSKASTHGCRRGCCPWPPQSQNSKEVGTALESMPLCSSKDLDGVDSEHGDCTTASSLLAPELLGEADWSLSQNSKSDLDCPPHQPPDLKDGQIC
B3: Growth/differentiation factor 11 (Mus musculus), Q9Z1W4 (parent)
chain: B1 chain
partner: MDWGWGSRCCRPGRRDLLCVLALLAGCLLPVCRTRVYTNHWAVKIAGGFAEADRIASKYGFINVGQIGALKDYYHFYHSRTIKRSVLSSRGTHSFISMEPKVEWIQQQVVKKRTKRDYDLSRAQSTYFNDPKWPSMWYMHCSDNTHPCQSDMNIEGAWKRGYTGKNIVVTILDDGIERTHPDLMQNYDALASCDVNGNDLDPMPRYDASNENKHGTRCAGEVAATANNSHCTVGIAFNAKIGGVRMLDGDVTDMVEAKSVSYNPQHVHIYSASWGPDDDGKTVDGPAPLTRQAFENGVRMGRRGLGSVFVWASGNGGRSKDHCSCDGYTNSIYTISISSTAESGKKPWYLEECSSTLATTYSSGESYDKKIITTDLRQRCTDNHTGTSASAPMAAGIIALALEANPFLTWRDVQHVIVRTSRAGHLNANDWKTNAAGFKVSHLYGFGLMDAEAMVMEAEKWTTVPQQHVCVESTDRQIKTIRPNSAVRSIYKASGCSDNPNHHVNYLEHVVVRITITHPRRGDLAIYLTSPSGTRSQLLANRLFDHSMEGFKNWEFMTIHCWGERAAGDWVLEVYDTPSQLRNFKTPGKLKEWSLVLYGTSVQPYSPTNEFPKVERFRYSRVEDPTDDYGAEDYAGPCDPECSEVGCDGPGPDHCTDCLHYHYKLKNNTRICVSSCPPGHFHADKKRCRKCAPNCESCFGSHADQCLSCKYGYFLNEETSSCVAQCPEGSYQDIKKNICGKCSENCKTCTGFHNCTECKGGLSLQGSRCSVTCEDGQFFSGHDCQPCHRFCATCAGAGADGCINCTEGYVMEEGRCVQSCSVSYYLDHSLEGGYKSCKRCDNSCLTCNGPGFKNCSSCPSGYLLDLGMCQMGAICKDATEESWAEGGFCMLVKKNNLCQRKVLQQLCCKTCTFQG
B4: Growth/differentiation factor 11 (Mus musculus), Q9Z1W4 (parent)
chain: B1 chain
partner: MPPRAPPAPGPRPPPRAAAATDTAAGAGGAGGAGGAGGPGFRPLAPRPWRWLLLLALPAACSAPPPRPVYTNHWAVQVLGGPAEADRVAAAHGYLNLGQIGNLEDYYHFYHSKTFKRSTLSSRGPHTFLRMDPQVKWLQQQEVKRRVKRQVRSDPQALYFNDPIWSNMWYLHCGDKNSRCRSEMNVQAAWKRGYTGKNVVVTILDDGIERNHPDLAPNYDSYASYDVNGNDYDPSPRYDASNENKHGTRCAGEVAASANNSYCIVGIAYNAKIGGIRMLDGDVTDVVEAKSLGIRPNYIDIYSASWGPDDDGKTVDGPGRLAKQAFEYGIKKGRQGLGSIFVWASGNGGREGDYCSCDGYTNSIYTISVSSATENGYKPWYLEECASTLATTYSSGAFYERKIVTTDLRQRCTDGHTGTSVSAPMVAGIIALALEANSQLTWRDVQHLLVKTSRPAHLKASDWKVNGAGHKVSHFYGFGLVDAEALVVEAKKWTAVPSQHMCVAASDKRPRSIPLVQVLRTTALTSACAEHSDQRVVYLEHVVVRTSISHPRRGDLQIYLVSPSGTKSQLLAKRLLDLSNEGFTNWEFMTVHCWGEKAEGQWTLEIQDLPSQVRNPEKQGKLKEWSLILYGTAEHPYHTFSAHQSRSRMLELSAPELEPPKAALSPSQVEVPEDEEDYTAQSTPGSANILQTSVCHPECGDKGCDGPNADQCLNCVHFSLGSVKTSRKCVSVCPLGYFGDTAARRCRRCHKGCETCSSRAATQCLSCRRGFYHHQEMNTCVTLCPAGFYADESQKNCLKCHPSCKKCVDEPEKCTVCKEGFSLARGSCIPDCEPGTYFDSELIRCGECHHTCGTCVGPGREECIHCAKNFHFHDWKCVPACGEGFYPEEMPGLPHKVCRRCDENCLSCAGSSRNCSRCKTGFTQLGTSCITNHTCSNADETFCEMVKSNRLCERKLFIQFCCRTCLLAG

Variants of: B1
Details: with furin_human FURIN
For MVLAAPLLLGFLLLALELRPRGEAAEGPAAAAAAAAAAAGVGGERSSRPAPSAPPEPDGCPVCVWRQHSRELRLESIKSQILSKLRLKEAPNISREVVKQLLPKAPPLQQILDLHDFQGDALQPEDFLEEDEYHATTETVISMAQETDPAVQTDGSPLCCHFHFSPKVMFTKVLKAQLWVYLRPVPRPATVYLQILRLKPLTGEGTAGGGGGGRRHIRIRSLKIELHSRSGHWQSIDFKQVLHSWFRQPQSNWGIEINAFDPSGTDLAVTSLGPGAEGLHPFMELRVLENTKRSRRDLGLDCDEHSSESRCCRYPLTVDFEAFGWDWIIAPKRYKANYCSGQCEYMFMQKYPHTHLVQQANPRGSAGPCCTPTKMSPINMLYFNDKQQIIYGKIPGMVVDRCGCS [N297D], the “effect of a mutation on the interaction” value was “increasing interaction”.

Variants of: B2
Details: with pcsk7_rat Pcsk7, Q62849
For MVLAAPLLLGFLLLALELRPRGEAAEGPAAAAAAAAAAAGVGGERSSRPAPSAPPEPDGCPVCVWRQHSRELRLESIKSQILSKLRLKEAPNISREVVKQLLPKAPPLQQILDLHDFQGDALQPEDFLEEDEYHATTETVISMAQETDPAVQTDGSPLCCHFHFSPKVMFTKVLKAQLWVYLRPVPRPATVYLQILRLKPLTGEGTAGGGGGGRRHIRIRSLKIELHSRSGHWQSIDFKQVLHSWFRQPQSNWGIEINAFDPSGTDLAVTSLGPGAEGLHPFMELRVLENTKRSRRDLGLDCDEHSSESRCCRYPLTVDFEAFGWDWIIAPKRYKANYCSGQCEYMFMQKYPHTHLVQQANPRGSAGPCCTPTKMSPINMLYFNDKQQIIYGKIPGMVVDRCGCS [N297D], the “effect of a mutation on the interaction” value was “increasing interaction”.

Variants of: B3
Details: with Pcsk5, P41413-2
In the case of MVLAAPLLLGFLLLALELRPRGEAAEGPAAAAAAAAAAAGVGGERSSRPAPSAPPEPDGCPVCVWRQHSRELRLESIKSQILSKLRLKEAPNISREVVKQLLPKAPPLQQILDLHDFQGDALQPEDFLEEDEYHATTETVISMAQETDPAVQTDGSPLCCHFHFSPKVMFTKVLKAQLWVYLRPVPRPATVYLQILRLKPLTGEGTAGGGGGGRRHIRIRSLKIELHSRSGHWQSIDFKQVLHSWFRQPQSNWGIEINAFDPSGTDLAVTSLGPGAEGLHPFMELRVLENTKRSRRDLGLDCDEHSSESRCCRYPLTVDFEAFGWDWIIAPKRYKANYCSGQCEYMFMQKYPHTHLVQQANPRGSAGPCCTPTKMSPINMLYFNDKQQIIYGKIPGMVVDRCGCS [N297D], the “effect of a mutation on the interaction” value is reported as “increasing interaction”.

Variants of: B4
Details: with PCSK6, P29122-1
In the case of MVLAAPLLLGFLLLALELRPRGEAAEGPAAAAAAAAAAAGVGGERSSRPAPSAPPEPDGCPVCVWRQHSRELRLESIKSQILSKLRLKEAPNISREVVKQLLPKAPPLQQILDLHDFQGDALQPEDFLEEDEYHATTETVISMAQETDPAVQTDGSPLCCHFHFSPKVMFTKVLKAQLWVYLRPVPRPATVYLQILRLKPLTGEGTAGGGGGGRRHIRIRSLKIELHSRSGHWQSIDFKQVLHSWFRQPQSNWGIEINAFDPSGTDLAVTSLGPGAEGLHPFMELRVLENTKRSRRDLGLDCDEHSSESRCCRYPLTVDFEAFGWDWIIAPKRYKANYCSGQCEYMFMQKYPHTHLVQQANPRGSAGPCCTPTKMSPINMLYFNDKQQIIYGKIPGMVVDRCGCS [N297D], the “effect of a mutation on the interaction” value is reported as “increasing interaction”.
